From the nanobody polyreactivity screen of Harvey et al. (2022)

Test: yeast display, Sf9 membrane polyspecificity reagent, FACS + sequencing; frameworks hold sequencing errors
Procedure, shortened: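 In a synthetic yeast display library (Saccharomyces cerevisiae BJ5465), nanobody expression was induced with galactose for 36–48 hours. FACS gates were set low and high (top ~1%) using anti-HA fluorescence for expression and streptavidin fluorescence for binding of the Sf9 membrane reagent. Each polyreactivity label is drawn from the gate of origin.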

Sequence | polyreactivity (PSR sort gate)
HVQLVESGGGLVQAGGSLRLSCAASGSTFSYNAMGWYRQAPGKEWELVAAISWRGTSTYYADSVKGRFTISRDNAKKTVYLQMNSLKPEDTAVYYCAAPYGVSYKGATYDSWGQGTQVTVSS | high polyreactivity
QVQLVESGGGLVQAGGSLRLSCAASGSIFSYYAMGWYRQAPGKERELVAAISWNGGRTYYADSVKGRFTISRDNAMNTVFLQMNSLKPEDTAVYYCNAVKVYSYGLYGYWGQGTQVTVSS | high polyreactivity
QVQLVESGGGLVQAGGSLRLSCAASGFTFVINDMGWYRQAPGKERELVADITSGGDKYYADSVKGRFTISRDNAKNTVYLQMISLKPEDTAVYYCARDNERDYYTYPYDYWGQGTQVTVSS | low polyreactivity
QVQLVESGGGLVQAGGSLRLSCAASGSVFGKYAMGWYRQAPGKERELVAAISRSGGSTYYADSVKGRFTISRDNAKNTVYLQMNSLKPEDTAVYYCAADSPGPWRYDYWGQGTQVTVSS | high polyreactivity
QVQLVESGGGLVQAGGSLRLSCAASGSIFPGYAMGWDRQAPGKERQLVATITWSGGSTYYADSVKGRFTISRDNAKNTVYLQMNSLKPEDTAVYYCIADSNWYYQWNYYGLYDYWGQGTQVTVSS | low polyreactivity
QVQLVESGGGLVQAGGSLRLSCAASGSNFPLNPMGWYRPSPGKERELVAAISSSTGSTSYADSVKGRFTISRDNAKNTVYLQMNSLKPEDTAVYYCAAETPYIVDYWGQGTQVTVSS | high polyreactivity
QVQLVESGGGLVQAGGSLRLSCAASGRIFEYYAMGWYRQAPGKERELVAAIRSGGRTYYADSVKGRFTISRDNAKNTVYLQMNSLKPEDTAVYYCNKLYRGGYGYWGQGTQVTVSS | high polyreactivity
QVQLVESGGGLVQAGGSLRLSCAASGSTIYINGMGWYRQAAGKERELVAVISKRGGTTYYADSVKGRFTISRDNAKNTVYLQMNSLKPEDTAVYYCADRPYYWGQGTQVTVSS | high polyreactivity
QVQLVESGGGLVQAGGSLRLSCAASGRTFNWYAMGWYRQAPGKEWELVAAISGGGGSTYYADSVKGRFTISRDNAKNTVYLQMNSLKPEDTAVYYCAADVEGWTVESDVYRVGYDYWGQGTQVTVSS | low polyreactivity
QDQLVESGGGLVQAGGSLRLSCAASGSIFYRNAMGWYRQAPGKERELVAAISSDGSTNYADSVKGRFTISRDNAKNTVYLQMNSLKPEDTAVYYCAAPWTQILDYWGQGTQVTVSS | low polyreactivity
QVQLVESGGGLVQAGGSLRLSCAASGLIFPTNAMGWYRQAPGKERELVAAISSVGSTYYADSVKGRFTISRDNAKNTVYLQMNSLKPEDTAVYYCAADWTLDPSYGYYADDYWGQGTQVTVSS | low polyreactivity
QVQLVESGGGLVQAGGSLRLSCAASGNTFRIYTMGWYRQSPGKEMELVATITRRGGSTYYADSVKGRFTISRDYAKNTVYLQMKSLKPEDTAVYYCAATTKLPRGHYWNYYWGQGTQVTVSS | high polyreactivity
QEQLQESGGGQVQAGGSLLLSCAASGNIIRYYYMGWYRQAPGKERELVAAITYGTSTNYADSVKGRFTIRRDNAKNTVYLQMNSLKPEDTAVYYCAVDVNYGDPLDNWGQGTQVTVSS | high polyreactivity
QVQLVESGGGLVQAGGSHRLSCAASGRTFYQNAMGWYRQAPGKERELVATISQRGGSTYYADSVKGRFTISRDTAKNTVYLQMNSLKPEDTAVYYCAKGRYAYSIWDDYWGQGTQVTVSS | low polyreactivity
QVQLVESGGGLVQAGGSLRLSCAASGSIFPSNAMGWYRQAPGKERELVAAINRDGISNYADSVKGRFTISRDNAKNTVYLQMNSLKPEDTAVYYCAAEFAWQWWEYGYWGQGTQVTVSS | low polyreactivity
QVQLVDSGGGLVQAGGSLRLSCAASGSILAINTMGWYRPAPGKEREFVAAISAGGTSTYYADSVKGRFTISRDNAKNTVSLQMNSLKPEDTAVYYCAAIFIIYRTGYRRYYWGQGTQVTVSS | high polyreactivity
QVQLVESGGGLVQAGGSLRLSCAASGLTFEHNAMGWYRQAPGKEREFVAVISWRGTSTYYADSVKGRFTISRDNAKNTVYLQMNSLKPEATAVYYCAAGYRGVANRKWIYYYWGQGTQVTVSS | high polyreactivity
QVQLVESGGGLVQAGGSLRLSCAASGRIFRAYAMGWYRQAPGKERELVASISRSGGSTYYADSVKGRFTISRDNSKNTVYLQMYSLKPEDTAVYYCAAVQPVGLYPRTKYYYCGQGTQVTVSS | high polyreactivity
QVQLVESGGGLVQAGGSLRLSCAASGSIFGYYAMGWYRQAPGKERELVAAISGNGGNTYYADSVKGRFTISRDNAKNTVYLQMNSLKPEDTAVYYCNRAPGYRGGRYDYWGQGTQVTVSS | high polyreactivity
QVQLVESGGGLVPAGGTLRLSCAASGFNFYFNTMGWYRQATGKERELVAAISSGGSTYYADSVKGRFTISRDNAKNTVSFQMNSLKPEDTAVYYCNKDYLQYYPYDYWGHGTQVTVSS | low polyreactivity
QVQLEESGGGLVQAGGSLRLSCAASGRIFSSYAMGWYRQAPGKERELVAAISSSGGRTYYADSVKGRFTISRDNAKNSVYLQMNSLKPEDTAVYYCARVTTGGYEYWGQGTQVTVSS | high polyreactivity
QVQLVESGGGLVQAGGSLRLSCAASGRTIYYYAMGWYRQAPGKERELVAAISRSGSSTFYADSVKGRFTISRDNAKNTVYLQMNSLKPEDTAVYYCAADDYSRRVYFFFGAYDYWGQGTQVTVSS | high polyreactivity

Sequence | polyreactivity (PSR sort gate)
QVQLVESGGGIVQAGGSLRLICAASGSIFSSNAMGWYRQAPGKERELVAAISYSGGGTYYADSVKGRFTISRDNEKNTVYLQMNSLKAEDTAVYYCAVGILFGHYDYLGQGTQVTVSS | high polyreactivity
QVQLVESGGCLVQARGSLRLSCASSGFIFQAYAIGWYRHRPGKERELVASISYSGSRTYYADSVKGRFTISRDNAKNTVYLQMNSLKPADTAVYYCAAGPRYWYPWFGRDYEYWGQGTQVTVSS | high polyreactivity
QVQLVESGGGLVQAGGSLRLSCAASGSTFGGNAMGWYRQAPGKERELVAVISKRGGSTYYADSVKGRFTISRDNAKNTVYLQMNSLKAEDTAVYYCAATYSRYWSPTYDYWGEGTQVTVSS | high polyreactivity
QVQLEESGGGLVQAGGSLRLSCAASGSIFPHYAMRWNRQAPGKERELVAAISRSGTSTYYADSVKGRFPISRDNAKNTVYLQMNSLKPEHTAVYYCNAYQVYTRTYGYWGQGTQVTVSS | high polyreactivity
QVQLVESGGGLVQAGGSLRLSCAASGSIFTAYAMGWYRQAPGKERELVAAITTSGDSTYYADSVKGRFTISRDNAKNTVYLQMNSLKPEDTAVYYCAAEYYSYRITTYDYWGQGTQVTVSS | high polyreactivity
QGQLVESGGRLVQAGGSLRVSCAASGLTFNYYAMRWYRPAPGKERELVASISRSGGSTYYADSVKGRFTISRDNAKNTVYLQMNSLKPVDTAVYYCAAYRRRTYAVNKEGGYWGQGTQVTVSS | high polyreactivity
QVQLVESGGGLVQAGGSLRLSCAASVSTFPGYAMGWYRQAPGKERELVAAISTSGGRTYYADSVKGRFTISRDNAKNTVYLQMNSLKPEDTAVYYCAARDTRSPYSGTQVEYWGQGTQVTVSS | low polyreactivity
QVQLVESGGGLVQAGGSLRLSCAASGSTFVYNAMGWYRQAPGKERELVAAITVIGGRTYYADSVKGRFTISRDNAKNTVYLQMNSLKPEDTAVYYCAAVTYWFWPGMDYWGQGTQVTVSS | low polyreactivity
QVQLVESGGGLVQAGGSLRLSCAASGRNFYVYGLGWYRQAPGKERELVASITYRGGSTSYADSVKGRFTISRDNAKNTVYLQMNSLKPEDTAVYYCNADTYYRYDYWGQGTQVTVSS | high polyreactivity
QVQLVESGGGLVQAGGSLRITCAASGIIFGSYAMGWYRQAPGKETELVAAISTSGGSTYYADSVKGRFTISRDNAKNTVYLQMNSLKPEDTAVYYCNKAGVYRDSSRYNYWGQGTQVTVSS | high polyreactivity
QVQLVESGGGLVQAGGSLRLSCAASGFILQGYAMGWYRQAPGKERELVATITTSSRTYYADSVKGRFTISRDNAKNTVYLQMNRLKPEDTAVYYCDKSVYPYGYYYGQMDYWGQGTQVTVSS | high polyreactivity
QVQLVESGGGLVQAGGSLRLSCAASGFAFSHYAMGWYRQAPGKERELVAAISWGGGSTYYADSVKGRFTISRDNAKNTVYLQMNSLRPEDTAVYYCAASIWLRYHWGYDYWGQGTQVTVSS | high polyreactivity
QVQLVESGGGLVQAGGSLRLSCAASGIFSHYALGWYRQAPGKERELVAAISSSGGRTYYADSVKGRFTISRDNAKNTVYLQMNSLKPEDTAVYYCAAPWRSSPYHFYYWGQGTQVTVSS | high polyreactivity
QVQLVESGGGLVQAGGSLRLSCAASGRTFIYYAMGWYRQAPGKEREFVAIISWNGTSTNYADSVKGRFTISRDNAKNTVYLQMNSLKPEDTAVYYCAASFWTDYYRYDYWGQGTQVTVSS | low polyreactivity
QVQLVESGGGLVQAGGSLRLSCAASGITFLKYAMGWYRQATGKEREFVAAISRRGGSTYYADSVKGRFTISRDNAKNTVYLQMNSLKPEDTAVYYCAALTVRGTWSQNDYWGQGTQVTVSS | low polyreactivity
QVQLVESGGGLVQAGGSLRLSCAASGFTFRGYAMGWYRQAPGKERELVAAISKRGGSTYYADSVKGRFTISRDNAKNTVYLQMNSLKPEDTAVYYCNADYYIVGPPYAPTREDYWGQGTQVTVSS | high polyreactivity
QVQHVESGGGLVQAGGSLRLSCAASGFIFAANAMGWYRQGPGKERELVAAINYRGSSTYYADSVKGRFTISRDNAKNTVNLQMNSLKPEDTAVYYCAARSGAQRGGGYWGQGTQVTVSS | high polyreactivity
QVQLVESGGGLVQAGGSLRLSCAASGSIFSTYAMGWYRQAHGKERELVAAISRSGGSTYYADSVKGRFTISRDNAKNTVYLQMNSLKPEDTAVYYCAKVGRRQRYDYWGQGTQVTVSS | high polyreactivity
QVQLVESGGGLVQAGGSLRLSCAASGRIRYAMGWYRQAPGKERELVAGITWSGGRTYYADSVKGRFTISRDNAKNTVYLQMNSLKPEDTAVYYCAAATPYRYNYWGQGTQVTVSA | high polyreactivity
QVQLVESGGGLVQAGGSLRLSCAASGSTFRTYAMGWYRQAPGKERELVAAIRSRGGSTYYADSVKGRFTISRDNAKNTVYLLMNSLKPEDTAVYYCNAVPRWSYVDEDSWGQGTQVTVSS | high polyreactivity
QVQLVESGGGLDQAGGRLRLSCAASGSTFLLYAMGWYRQAPGKERELVAAIDTGDSTNYADSVKGRFTISRDNAKNTVYLQMNSLKREDTAVYYCNADSFPALNKRGYDYWGQGTQVTVSS | low polyreactivity
